Measured values taken from PMC9409194, “Salt Dependence of DNA Binding Activity of Human Transcription Factor Dlx3”.

Target: Dlx3-HD (human, UniProt O60479 129-188)
Test: NMR (1H/15N-HSQC CSP and imino proton titration); 100 mM NaCl, 35 C; slow exchange; 10 mM sodium phosphate pH 6.0, 100, 250 or 500 mM NaCl, 90% H2O/10% D2O, 35 C
Details: protein: recombinant; tags: Ni-NTA purified (His-tag implied); blunt

Sequence of Dlx3-HD (O60479 129-188): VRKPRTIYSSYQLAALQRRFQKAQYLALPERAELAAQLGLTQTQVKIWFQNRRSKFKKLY

B1: dlxDNA (dsDNA)
DNA 1: CGTAATTGCC
DNA 2: GGCAATTACG
binding result: binds
